Measured values: PMC9482650, “Quantitative fragmentomics allow affinity mapping of interactomes” (Nature Communications, 2022)

Legend:
Assay in all cases: holdup assay
Set-up in all cases: key: below the threshold = too weak to quantify, mostly under pKd 3.1 to 4
TJP1_3, Q07157 = molecular target: TJP1_3, Q07157
HTRA2, O43464 = molecular target: HTRA2, O43464
Inadl_2, Q8NI35 = molecular target: Inadl_2, Q8NI35
TJP2_1, Q9UDY2 = molecular target: TJP2_1, Q9UDY2
MAGI2_3, Q86UL8 = molecular target: MAGI2_3, Q86UL8
AHNAK1, Q09666 = molecular target: AHNAK1, Q09666
Inadl_10, Q8NI35 = molecular target: Inadl_10, Q8NI35
GIPC2, Q8TF65 = molecular target: GIPC2, Q8TF65
NHERF4_4, Q86UT5 = molecular target: NHERF4_4, Q86UT5
DVL3, Q92997 = molecular target: T1, DVL3, Q92997
T1 sequence (Q92997 244-331, limits assumed, looked up): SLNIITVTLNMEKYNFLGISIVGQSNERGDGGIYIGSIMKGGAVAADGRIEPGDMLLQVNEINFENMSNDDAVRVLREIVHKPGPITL

NHERF3_4, Q5T2W1 = molecular target: T2, NHERF3_4, Q5T2W1
T2 sequence (Q5T2W1 373-468, limits assumed, looked up): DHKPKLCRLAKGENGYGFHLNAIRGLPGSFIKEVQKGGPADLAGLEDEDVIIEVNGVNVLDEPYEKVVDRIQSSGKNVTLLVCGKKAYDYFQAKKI

HTRA3, P83110 = molecular target: T3, HTRA3, P83110
T3 sequence (P83110 354-453, limits assumed, looked up): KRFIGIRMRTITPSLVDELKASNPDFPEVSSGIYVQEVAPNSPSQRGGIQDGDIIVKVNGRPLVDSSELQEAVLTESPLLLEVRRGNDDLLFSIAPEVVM

APBA1_1, Q02410 = molecular target: T4, APBA1_1, Q02410
T4 sequence (Q02410 651-752, limits assumed, looked up): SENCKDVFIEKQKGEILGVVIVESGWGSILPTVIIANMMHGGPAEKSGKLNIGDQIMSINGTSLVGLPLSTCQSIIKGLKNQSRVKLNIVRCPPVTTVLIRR

PDZD7_3, Q9H5P4 = molecular target: T5, PDZD7_3, Q9H5P4
T5 sequence (Q9H5P4 857-944, limits assumed, looked up): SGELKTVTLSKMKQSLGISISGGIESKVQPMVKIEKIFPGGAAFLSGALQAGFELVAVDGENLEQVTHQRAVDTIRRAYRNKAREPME

DFNB31_1, Q9P202 = molecular target: T6, DFNB31_1, Q9P202
T6 sequence (Q9P202 135-233, limits assumed, looked up): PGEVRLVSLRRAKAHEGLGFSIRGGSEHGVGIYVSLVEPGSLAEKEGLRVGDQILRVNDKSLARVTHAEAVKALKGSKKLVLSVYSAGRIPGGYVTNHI

LNX1_1, Q8TBB1 = molecular target: LNX1_1, Q8TBB1
Inadl_3, Q8NI35 = molecular target: Inadl_3, Q8NI35
SCRIB_2, Q14160 = molecular target: SCRIB_2, Q14160
GRIP1_3, Q9Y3R0 = molecular target: T7, GRIP1_3, Q9Y3R0
T7 sequence (Q9Y3R0 247-346, limits assumed, looked up): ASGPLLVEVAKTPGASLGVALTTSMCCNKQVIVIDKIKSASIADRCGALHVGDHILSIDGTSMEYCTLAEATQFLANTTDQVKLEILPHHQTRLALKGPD

DLG4_2, P78352 = molecular target: DLG4_2, P78352
MAST2, Q6P0Q8 = molecular target: MAST2, Q6P0Q8
SYNJ2BP, P57105 = molecular target: T8, SYNJ2BP, P57105
T8 sequence (P57105 8-110, limits assumed, looked up): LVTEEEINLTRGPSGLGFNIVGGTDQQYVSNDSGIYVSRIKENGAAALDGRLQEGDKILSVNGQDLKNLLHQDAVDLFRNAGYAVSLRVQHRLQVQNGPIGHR

GRIP2_7, Q9C0E4 = molecular target: GRIP2_7, Q9C0E4
TX1BP3, O14907 = molecular target: T9, TX1BP3, O14907
T9 sequence (O14907 10-122, limits assumed, looked up): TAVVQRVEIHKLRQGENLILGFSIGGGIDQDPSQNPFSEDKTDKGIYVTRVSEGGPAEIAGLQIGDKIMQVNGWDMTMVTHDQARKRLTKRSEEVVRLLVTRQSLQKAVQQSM

IL16_4, Q14005 = molecular target: IL16_4, Q14005
GRIP1_4, Q9Y3R0 = molecular target: T10, GRIP1_4, Q9Y3R0
T10 sequence (Q9Y3R0 467-571, limits assumed, looked up): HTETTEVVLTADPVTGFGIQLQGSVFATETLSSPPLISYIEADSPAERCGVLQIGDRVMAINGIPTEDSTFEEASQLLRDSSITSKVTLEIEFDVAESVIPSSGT

SCRIB_1, Q14160 = molecular target: SCRIB_1, Q14160
FRMPD4, Q14CM0 = molecular target: FRMPD4, Q14CM0
[1] = plain residues with an end cap or a label only (N-terminal biotin on a linker: ttds)
[2] = plain residues with an end cap or a label only (N-terminal biotin on a linker: gsgsgs; C-terminal amide)

Measured: pKd

Sequence of HTRA2, O43464 (O43464 355-458): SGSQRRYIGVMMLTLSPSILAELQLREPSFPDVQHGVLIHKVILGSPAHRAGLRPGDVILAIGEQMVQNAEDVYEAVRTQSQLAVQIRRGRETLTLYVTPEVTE
Sequence of MAST2, Q6P0Q8 (Q6P0Q8 1099-1202): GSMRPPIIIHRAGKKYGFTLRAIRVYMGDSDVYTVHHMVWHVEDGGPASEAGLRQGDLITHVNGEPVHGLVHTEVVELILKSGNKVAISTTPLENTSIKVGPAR
Sequence of TJP1_3, Q07157 (Q07157 416-512): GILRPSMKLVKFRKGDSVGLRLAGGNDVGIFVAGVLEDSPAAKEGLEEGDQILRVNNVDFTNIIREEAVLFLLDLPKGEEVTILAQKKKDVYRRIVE
Sequence of AHNAK1, Q09666 (Q09666 4-100): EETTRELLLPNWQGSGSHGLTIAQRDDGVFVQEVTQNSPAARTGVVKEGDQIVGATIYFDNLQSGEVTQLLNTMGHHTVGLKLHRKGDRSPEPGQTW
Sequence of IL16_4, Q14005 (Q14005 1229-1329): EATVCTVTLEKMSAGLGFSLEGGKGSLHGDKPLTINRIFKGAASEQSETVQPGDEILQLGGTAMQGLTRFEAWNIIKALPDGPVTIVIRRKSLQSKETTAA
Sequence of Inadl_3, Q8NI35 (Q8NI35 359-469): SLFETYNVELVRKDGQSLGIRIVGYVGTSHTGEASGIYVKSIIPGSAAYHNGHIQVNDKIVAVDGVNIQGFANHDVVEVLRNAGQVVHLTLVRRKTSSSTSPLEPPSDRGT
Sequence of Inadl_10, Q8NI35 (Q8NI35 1673-1763): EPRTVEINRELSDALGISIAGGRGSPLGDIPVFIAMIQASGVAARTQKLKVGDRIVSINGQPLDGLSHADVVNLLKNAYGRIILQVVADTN
Sequence of NHERF4_4, Q86UT5 (Q86UT5 464-550): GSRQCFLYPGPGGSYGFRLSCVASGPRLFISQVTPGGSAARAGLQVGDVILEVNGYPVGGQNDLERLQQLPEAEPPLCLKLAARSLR
Sequence of FRMPD4, Q14CM0 (Q14CM0 67-160): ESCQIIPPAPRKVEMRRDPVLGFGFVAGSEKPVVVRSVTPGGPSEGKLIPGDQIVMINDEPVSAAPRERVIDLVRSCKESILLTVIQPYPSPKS
Sequence of GIPC2, Q8TF65 (Q8TF65 112-203): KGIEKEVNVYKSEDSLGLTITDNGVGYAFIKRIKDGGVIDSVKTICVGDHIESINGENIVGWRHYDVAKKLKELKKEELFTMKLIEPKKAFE
Sequence of SCRIB_1, Q14160 (Q14160 718-814): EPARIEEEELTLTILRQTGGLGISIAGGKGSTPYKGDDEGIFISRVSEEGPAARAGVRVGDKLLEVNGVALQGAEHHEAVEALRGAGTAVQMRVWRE
Sequence of LNX1_1, Q8TBB1 (Q8TBB1 261-371): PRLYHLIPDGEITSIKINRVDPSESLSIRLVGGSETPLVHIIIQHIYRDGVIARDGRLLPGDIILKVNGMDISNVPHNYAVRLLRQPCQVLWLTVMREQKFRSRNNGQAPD
Sequence of DLG4_2, P78352 (P78352 155-259): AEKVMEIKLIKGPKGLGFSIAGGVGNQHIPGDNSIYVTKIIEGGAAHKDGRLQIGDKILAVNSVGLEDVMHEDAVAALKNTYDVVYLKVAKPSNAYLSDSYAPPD
Sequence of Inadl_2, Q8NI35 (Q8NI35 238-335): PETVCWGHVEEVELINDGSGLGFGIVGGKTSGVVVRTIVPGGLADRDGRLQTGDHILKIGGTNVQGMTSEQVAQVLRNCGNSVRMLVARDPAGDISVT
Sequence of MAGI2_3, Q86UL8 (Q86UL8 600-682): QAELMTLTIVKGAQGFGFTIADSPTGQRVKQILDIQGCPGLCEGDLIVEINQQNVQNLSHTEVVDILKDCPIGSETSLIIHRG
Sequence of TJP2_1, Q9UDY2 (Q9UDY2 24-128): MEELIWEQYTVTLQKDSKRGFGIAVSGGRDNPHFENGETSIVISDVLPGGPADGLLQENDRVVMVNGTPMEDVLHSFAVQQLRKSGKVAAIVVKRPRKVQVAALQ
Sequence of SCRIB_2, Q14160 (Q14160 857-960): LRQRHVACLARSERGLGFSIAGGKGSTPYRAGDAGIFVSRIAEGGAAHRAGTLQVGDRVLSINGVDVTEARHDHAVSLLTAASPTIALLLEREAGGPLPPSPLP
Sequence of GRIP2_7, Q9C0E4 (Q9C0E4 934-1023): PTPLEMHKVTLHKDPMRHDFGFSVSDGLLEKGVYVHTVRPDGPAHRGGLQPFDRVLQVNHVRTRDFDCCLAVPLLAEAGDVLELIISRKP

B1: DLGAP4, Q9Y2H0 (peptide)
chain: IYVPEAQTRL
5.3: SCRIB_1, Q14160; [1]
below the threshold: TJP1_3, Q07157; [1] | HTRA2, O43464; [1] | Inadl_2, Q8NI35; [1] | TJP2_1, Q9UDY2; [1] | MAGI2_3, Q86UL8; [1] | AHNAK1, Q09666; [1] | Inadl_10, Q8NI35; [1] | GIPC2, Q8TF65; [1] | NHERF4_4, Q86UT5; [1] | DVL3, Q92997; [1] | HTRA3, P83110; [1] | APBA1_1, Q02410; [1] | LNX1_1, Q8TBB1; [1] | Inadl_3, Q8NI35; [1] | SCRIB_2, Q14160; [1] | GRIP1_3, Q9Y3R0; [1] | DLG4_2, P78352; [1] | SYNJ2BP, P57105; [1] | GRIP2_7, Q9C0E4; [1] | TX1BP3, O14907; [1] | IL16_4, Q14005; [1] | GRIP1_4, Q9Y3R0; [1]
4.25: FRMPD4, Q14CM0; [1]
6.16: MAST2, Q6P0Q8; [1]
3.87: NHERF3_4, Q5T2W1; [1]
3.96: DFNB31_1, Q9P202; [1]
4.31: PDZD7_3, Q9H5P4; [1]

B2: AXIN1_int, O15169 (peptide)
chain: TLSLTDSSVDGIPPYR
4.52: SYNJ2BP, P57105; [2]
3.78: TX1BP3, O14907; [2]
below the threshold: TJP1_3, Q07157; [2] | HTRA2, O43464; [2] | Inadl_2, Q8NI35; [2] | TJP2_1, Q9UDY2; [2] | MAGI2_3, Q86UL8; [2] | AHNAK1, Q09666; [2] | Inadl_10, Q8NI35; [2] | GIPC2, Q8TF65; [2] | NHERF4_4, Q86UT5; [2] | DVL3, Q92997; [2] | NHERF3_4, Q5T2W1; [2] | HTRA3, P83110; [2] | APBA1_1, Q02410; [2] | PDZD7_3, Q9H5P4; [2] | DFNB31_1, Q9P202; [2] | LNX1_1, Q8TBB1; [2] | Inadl_3, Q8NI35; [2] | SCRIB_2, Q14160; [2] | GRIP1_3, Q9Y3R0; [2] | DLG4_2, P78352; [2] | MAST2, Q6P0Q8; [2] | GRIP2_7, Q9C0E4; [2] | IL16_4, Q14005; [2] | GRIP1_4, Q9Y3R0; [2] | SCRIB_1, Q14160; [2] | FRMPD4, Q14CM0; [2]

B3: KIR3DL3, Q8N743 (peptide)
chain: PKTPPTDTSV
3.69: DFNB31_1, Q9P202; [1] | SCRIB_1, Q14160; [1]
3.61: PDZD7_3, Q9H5P4; [1]
4.22: DLG4_2, P78352; [1]
3.67: TX1BP3, O14907; [1]
below the threshold: TJP1_3, Q07157; [1] | HTRA2, O43464; [1] | Inadl_2, Q8NI35; [1] | TJP2_1, Q9UDY2; [1] | MAGI2_3, Q86UL8; [1] | AHNAK1, Q09666; [1] | Inadl_10, Q8NI35; [1] | GIPC2, Q8TF65; [1] | NHERF4_4, Q86UT5; [1] | DVL3, Q92997; [1] | NHERF3_4, Q5T2W1; [1] | HTRA3, P83110; [1] | APBA1_1, Q02410; [1] | LNX1_1, Q8TBB1; [1] | Inadl_3, Q8NI35; [1] | GRIP1_3, Q9Y3R0; [1] | GRIP2_7, Q9C0E4; [1] | IL16_4, Q14005; [1] | GRIP1_4, Q9Y3R0; [1]
4.7: MAST2, Q6P0Q8; [1]
3.78: FRMPD4, Q14CM0; [1]
4.08: SCRIB_2, Q14160; [1]
4.44: SYNJ2BP, P57105; [1]

B4: HPV16-E6, P03126 (peptide)
chain: SSRTRRETQL
4.68: PDZD7_3, Q9H5P4; [1]
4.66: DLG4_2, P78352; [1]
3.61: NHERF4_4, Q86UT5; [1]
4.21: SCRIB_2, Q14160; [1]
5.18: SYNJ2BP, P57105; [1]
4.12: TJP2_1, Q9UDY2; [1]
5.42: SCRIB_1, Q14160; [1]
3.53: DFNB31_1, Q9P202; [1]
below the threshold: TJP1_3, Q07157; [1] | HTRA2, O43464; [1] | Inadl_2, Q8NI35; [1] | AHNAK1, Q09666; [1] | Inadl_10, Q8NI35; [1] | GIPC2, Q8TF65; [1] | DVL3, Q92997; [1] | HTRA3, P83110; [1] | APBA1_1, Q02410; [1] | Inadl_3, Q8NI35; [1] | GRIP1_3, Q9Y3R0; [1] | GRIP2_7, Q9C0E4; [1] | IL16_4, Q14005; [1] | GRIP1_4, Q9Y3R0; [1]
3.83: FRMPD4, Q14CM0; [1]
3.51: LNX1_1, Q8TBB1; [1]
3.67: MAGI2_3, Q86UL8; [1]
5.66: MAST2, Q6P0Q8; [1]
3.89: NHERF3_4, Q5T2W1; [1]
4.87: TX1BP3, O14907; [1]

B5: SLC1A5, Q15758 (peptide)
chain: TVASEKESVM
3.69: TX1BP3, O14907; [1]
3.71: PDZD7_3, Q9H5P4; [1]
5.2: SCRIB_1, Q14160; [1]
3.65: DFNB31_1, Q9P202; [1]
below the threshold: TJP1_3, Q07157; [1] | HTRA2, O43464; [1] | Inadl_2, Q8NI35; [1] | TJP2_1, Q9UDY2; [1] | MAGI2_3, Q86UL8; [1] | AHNAK1, Q09666; [1] | Inadl_10, Q8NI35; [1] | NHERF4_4, Q86UT5; [1] | DVL3, Q92997; [1] | NHERF3_4, Q5T2W1; [1] | HTRA3, P83110; [1] | APBA1_1, Q02410; [1] | LNX1_1, Q8TBB1; [1] | Inadl_3, Q8NI35; [1] | SCRIB_2, Q14160; [1] | GRIP1_3, Q9Y3R0; [1] | DLG4_2, P78352; [1] | GRIP2_7, Q9C0E4; [1] | IL16_4, Q14005; [1] | GRIP1_4, Q9Y3R0; [1] | FRMPD4, Q14CM0; [1]
3.51: SYNJ2BP, P57105; [1]
3.54: GIPC2, Q8TF65; [1]
4.61: MAST2, Q6P0Q8; [1]
